{"source": "paper PMC12519566", "about": "“A TOM1 variant impairs interaction with TOLLIP, autophagosome-lysosome fusion and regulation of innate immunity” (Disease Models & Mechanisms, 2025)", "molecules": {"B1": {"name": "myosin VI (natural protein, human (endogenous in Flp-In T-REx 293), UniProt Q9UM54 1-1294, looked up)", "chain": "MEDGKPVWAPHPTDGFQMGNIVDIGPDSLTIEPLNQKGKTFLALINQVFPAEEDSKKDVEDNCSLMYLNEATLLHNIKVRYSKDRIYTYVANILIAVNPYFDIPKIYSSEAIKSYQGKSLGTRPPHVFAIADKAFRDMKVLKMSQSIIVSGESGAGKTENTKFVLRYLTESYGTGQDIDDRIVEANPLLEAFGNAKTVRNNNSSRFGKFVEIHFNEKSSVVGGFVSHYLLEKSRICVQGKEERNYHIFYRLCAGASEDIREKLHLSSPDNFRYLNRGCTRYFANKETDKQILQNRKSPEYLKAGSMKDPLLDDHGDFIRMCTAMKKIGLDDEEKLDLFRVVAGVLHLGNIDFEEAGSTSGGCNLKNKSAQSLEYCAELLGLDQDDLRVSLTTRVMLTTAGGTKGTVIKVPLKVEQANNARDALAKTVYSHLFDHVVNRVNQCFPFETSSYFIGVLDIAGFEYFEHNSFEQFCINYCNEKLQQFFNERILKEEQELYQKEGLGVNEVHYVDNQDCIDLIEAKLVGILDILDEENRLPQPSDQHFTSAVHQKHKDHFRLTIPRKSKLAVHRNIRDDEGFIIRHFAGAVCYETTQFVEKNNDALHMSLESLICESRDKFIRELFESSTNNNKDTKQKAGKLSFISVGNKFKTQLNLLLDKLRSTGASFIRCIKPNLKMTSHHFEGAQILSQLQCSGMVSVLDLMQGGYPSRASFHELYNMYKKYMPDKLARLDPRLFCKALFKALGLNENDYKFGLTKVFFRPGKFAEFDQIMKSDPDHLAELVKRVNHWLTCSRWKKVQWCSLSVIKLKNKIKYRAEACIKMQKTIRMWLCKRRHKPRIDGLVKVGTLKKRLDKFNEVVSVLKDGKPEMNKQIKNLEISIDTLMAKIKSTMMTQEQIQKEYDALVKSSEELLSALQKKKQQEEEAERLRRIQEEMEKERKRREEDEKRRRKEEEERRMKLEMEAKRKQEEEERKKREDDEKRIQAEVEAQLARQKEEESQQQAVLEQERRDRELALRIAQSEAELISDEAQADLALRRSLDSYPVSKNDGTRPKMTPEQMAKEMSEFLSRGPAVLATKAAAGTKKYDLSKWKYAELRDTINTSCDIELLAACREEFHRRLKVYHAWKSKNKKRNTETEQRAPKSVTDYDFAPFLNNSPQQNPAAQIPARQREIEMNRQQRFFRIPFIRPADQYKDPQSKKKGWWYAHFDGPWIARQMELHPDKPPILLVAGKDDMEMCELNLEETGLTRKRGAEILPRQFEEIWERCGGIQYLQNAIESRQARPTYATAMLQSLLK", "notes": "myosin VI, endogenous protein found by proximity labeling mass spectrometry; source: endogenous, Flp-In T-REx 293 cells"}}, "key": {"TOLLIP": {"target": "T1, TOLLIP (Homo sapiens, UniProt Q9H0E2)", "T1 construct": "human TOLLIP cDNA in pGEX6P1, expressed in E. coli Rosetta; GST-TOLLIP in the lipid overlay, TOLLIP in liposome co-sedimentation", "test": "lipid-protein overlay; liposome co-sedimentation", "format": "binding", "conditions": "without TOM1; overlay: PtdIns3P on PVDF, 60 nM GST-TOLLIP, pH 8.0, 4 C; sedimentation: 2.5 uM TOLLIP, DOPC/DOPE liposomes with 3% PtdIns3P"}, "GST [1]": {"target": "GST", "test": "cross-linking; BS3 (0.25-5 mM), 30 min at room temperature; TOLLIP and TOM1 preincubated for 30 min before BS3; SDS-PAGE"}, "GST [2]": {"target": "GST", "test": "cross-linking; glutaraldehyde dilution series (0.01-1%), 5 min at 37°C; SDS-PAGE"}, "[3]": {"target": "T2, TOM1 G307D, MYC-BirA fusion (BioID bait) (UniProt O60784 1-492, G307D)", "T2 construct": "also called TOM1 G307D variant; source: inducible Flp-In T-REx 293 cell line, induced with doxycycline and biotin, in cells", "test": "proximity labelling; BioID with mass spectrometry; Flp-In T-REx 293 cells induced with 2 µg/ml doxycycline and 50 µM biotin for 24 h; Strep-Tactin sepharose; three biological replicates", "conditions": "partners not purified"}}, "data": [{"molecule": "CCCCCCCCCCCCCCCC(=O)OC[C@H](COP(=O)(O)O[C@@H]1[C@H](O)[C@H](OP(=O)(O)O)[C@@H](O)[C@H](O)[C@H]1O)OC(=O)CCCCCCCCCCCCCCC", "note": "[dipalmitoyl PtdIns3P]", "values": [{"measurement": "lipid-protein overlay; liposome co-sedimentation", "setting": "TOLLIP", "result": "As expected, TOM1 WT significantly reduced TOLLIP binding to PtdIns3P (Fig. 2B)."}]}, {"molecule": "GST (natural protein)", "values": [{"measurement": "stoichiometry N", "setting": "GST [1]", "result": 2}, {"measurement": "stoichiometry N", "setting": "GST [2]", "result": 2}]}, {"molecule": "B1", "values": [{"measurement": "interaction relative to that of TOM1 WT with myosin VI", "setting": "[3]", "result": 69, "unit": "%"}]}]}
